Assay results published in patent US20210388087A1 (Chugai, published 2021).

T1: Human CD3eg linker (human)
T1 construct: Single-chain construct; also called recombinant human CD3
T1 chain: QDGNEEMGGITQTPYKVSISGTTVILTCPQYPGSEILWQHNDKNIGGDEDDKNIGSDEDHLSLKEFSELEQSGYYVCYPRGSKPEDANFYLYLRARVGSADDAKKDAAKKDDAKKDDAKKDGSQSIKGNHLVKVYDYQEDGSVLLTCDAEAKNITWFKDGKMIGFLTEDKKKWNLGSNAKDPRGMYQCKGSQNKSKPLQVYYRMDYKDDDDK


Target: T1, Human CD3eg linker
Test: SPR; fold vs parent H183/L072

Row | Binder | fold change of affinity
1 | H183/L072 VL A25S (antibody, name in Kabat numbering, V domains shown) VH: QVQLVESGGGLVQPGRSLRLSCAASGFTFSNAWMHWVRQAPGKGLEWVAQIKDKGNAYAAYYAPSVKGRFTISRDDSKNSIYLQMNSLKTEDTAVYYCHYVHYASASTVLPAFGVDAWGQGTTVTVSS VL: DIVMTQSPLSLPVTPGEPASISCQSSQELVHMNRNTYLHWYQQKPGQAPRLLIYKVSNRFPGVPDRFSGSGSGTDFTLKISRVEAEDVGVYYCAQGTSVPFTFGQGTKLEIK | 1.3 fold
2 | H183/L072 VL A25V (antibody, name in Kabat numbering, V domains shown) VH: QVQLVESGGGLVQPGRSLRLSCAASGFTFSNAWMHWVRQAPGKGLEWVAQIKDKGNAYAAYYAPSVKGRFTISRDDSKNSIYLQMNSLKTEDTAVYYCHYVHYASASTVLPAFGVDAWGQGTTVTVSS VL: DIVMTQSPLSLPVTPGEPASISCQVSQELVHMNRNTYLHWYQQKPGQAPRLLIYKVSNRFPGVPDRFSGSGSGTDFTLKISRVEAEDVGVYYCAQGTSVPFTFGQGTKLEIK | 0.9 fold
3 | H183/L072 VL A89H (antibody, name in Kabat numbering, V domains shown) VH: QVQLVESGGGLVQPGRSLRLSCAASGFTFSNAWMHWVRQAPGKGLEWVAQIKDKGNAYAAYYAPSVKGRFTISRDDSKNSIYLQMNSLKTEDTAVYYCHYVHYASASTVLPAFGVDAWGQGTTVTVSS VL: DIVMTQSPLSLPVTPGEPASISCQASQELVHMNRNTYLHWYQQKPGQAPRLLIYKVSNRFPGVPDRFSGSGSGTDFTLKISRVEAEDVGVYYCHQGTSVPFTFGQGTKLEIK | 0 fold
4 | H183/L072 VL A89K (antibody, name in Kabat numbering, V domains shown) VH: QVQLVESGGGLVQPGRSLRLSCAASGFTFSNAWMHWVRQAPGKGLEWVAQIKDKGNAYAAYYAPSVKGRFTISRDDSKNSIYLQMNSLKTEDTAVYYCHYVHYASASTVLPAFGVDAWGQGTTVTVSS VL: DIVMTQSPLSLPVTPGEPASISCQASQELVHMNRNTYLHWYQQKPGQAPRLLIYKVSNRFPGVPDRFSGSGSGTDFTLKISRVEAEDVGVYYCKQGTSVPFTFGQGTKLEIK | 1.1 fold
5 | H183/L072 VL A89F (antibody, name in Kabat numbering, V domains shown) VH: QVQLVESGGGLVQPGRSLRLSCAASGFTFSNAWMHWVRQAPGKGLEWVAQIKDKGNAYAAYYAPSVKGRFTISRDDSKNSIYLQMNSLKTEDTAVYYCHYVHYASASTVLPAFGVDAWGQGTTVTVSS VL: DIVMTQSPLSLPVTPGEPASISCQASQELVHMNRNTYLHWYQQKPGQAPRLLIYKVSNRFPGVPDRFSGSGSGTDFTLKISRVEAEDVGVYYCFQGTSVPFTFGQGTKLEIK | 0.2 fold
6 | H183/L072 VL A25T (antibody, name in Kabat numbering, V domains shown) VH: QVQLVESGGGLVQPGRSLRLSCAASGFTFSNAWMHWVRQAPGKGLEWVAQIKDKGNAYAAYYAPSVKGRFTISRDDSKNSIYLQMNSLKTEDTAVYYCHYVHYASASTVLPAFGVDAWGQGTTVTVSS VL: DIVMTQSPLSLPVTPGEPASISCQTSQELVHMNRNTYLHWYQQKPGQAPRLLIYKVSNRFPGVPDRFSGSGSGTDFTLKISRVEAEDVGVYYCAQGTSVPFTFGQGTKLEIK | 1.1 fold
7 | H183/L072 VL A89G (antibody, name in Kabat numbering, V domains shown) VH: QVQLVESGGGLVQPGRSLRLSCAASGFTFSNAWMHWVRQAPGKGLEWVAQIKDKGNAYAAYYAPSVKGRFTISRDDSKNSIYLQMNSLKTEDTAVYYCHYVHYASASTVLPAFGVDAWGQGTTVTVSS VL: DIVMTQSPLSLPVTPGEPASISCQASQELVHMNRNTYLHWYQQKPGQAPRLLIYKVSNRFPGVPDRFSGSGSGTDFTLKISRVEAEDVGVYYCGQGTSVPFTFGQGTKLEIK | 0.7 fold
8 | H183/L072 VL A89D (antibody, name in Kabat numbering, V domains shown) VH: QVQLVESGGGLVQPGRSLRLSCAASGFTFSNAWMHWVRQAPGKGLEWVAQIKDKGNAYAAYYAPSVKGRFTISRDDSKNSIYLQMNSLKTEDTAVYYCHYVHYASASTVLPAFGVDAWGQGTTVTVSS VL: DIVMTQSPLSLPVTPGEPASISCQASQELVHMNRNTYLHWYQQKPGQAPRLLIYKVSNRFPGVPDRFSGSGSGTDFTLKISRVEAEDVGVYYCDQGTSVPFTFGQGTKLEIK | 0 fold
9 | H183/L072 VL A89M (antibody, name in Kabat numbering, V domains shown) VH: QVQLVESGGGLVQPGRSLRLSCAASGFTFSNAWMHWVRQAPGKGLEWVAQIKDKGNAYAAYYAPSVKGRFTISRDDSKNSIYLQMNSLKTEDTAVYYCHYVHYASASTVLPAFGVDAWGQGTTVTVSS VL: DIVMTQSPLSLPVTPGEPASISCQASQELVHMNRNTYLHWYQQKPGQAPRLLIYKVSNRFPGVPDRFSGSGSGTDFTLKISRVEAEDVGVYYCMQGTSVPFTFGQGTKLEIK | 0.1 fold
10 | H183/L072 VL A89E (antibody, name in Kabat numbering, V domains shown) VH: QVQLVESGGGLVQPGRSLRLSCAASGFTFSNAWMHWVRQAPGKGLEWVAQIKDKGNAYAAYYAPSVKGRFTISRDDSKNSIYLQMNSLKTEDTAVYYCHYVHYASASTVLPAFGVDAWGQGTTVTVSS VL: DIVMTQSPLSLPVTPGEPASISCQASQELVHMNRNTYLHWYQQKPGQAPRLLIYKVSNRFPGVPDRFSGSGSGTDFTLKISRVEAEDVGVYYCEQGTSVPFTFGQGTKLEIK | 0 fold

Second part, the binder after the results:

Row | fold change of affinity | Binder
11 | 1.1 fold | H183/L072 VL E27aD (antibody, name in Kabat numbering, V domains shown) VH: QVQLVESGGGLVQPGRSLRLSCAASGFTFSNAWMHWVRQAPGKGLEWVAQIKDKGNAYAAYYAPSVKGRFTISRDDSKNSIYLQMNSLKTEDTAVYYCHYVHYASASTVLPAFGVDAWGQGTTVTVSS VL: DIVMTQSPLSLPVTPGEPASISCQASQDLVHMNRNTYLHWYQQKPGQAPRLLIYKVSNRFPGVPDRFSGSGSGTDFTLKISRVEAEDVGVYYCAQGTSVPFTFGQGTKLEIK
12 | 0.2 fold | H183/L072 VL A89Q (antibody, name in Kabat numbering, V domains shown) VH: QVQLVESGGGLVQPGRSLRLSCAASGFTFSNAWMHWVRQAPGKGLEWVAQIKDKGNAYAAYYAPSVKGRFTISRDDSKNSIYLQMNSLKTEDTAVYYCHYVHYASASTVLPAFGVDAWGQGTTVTVSS VL: DIVMTQSPLSLPVTPGEPASISCQASQELVHMNRNTYLHWYQQKPGQAPRLLIYKVSNRFPGVPDRFSGSGSGTDFTLKISRVEAEDVGVYYCQQGTSVPFTFGQGTKLEIK
13 | 0 fold | H183/L072 VL A89T (antibody, name in Kabat numbering, V domains shown) VH: QVQLVESGGGLVQPGRSLRLSCAASGFTFSNAWMHWVRQAPGKGLEWVAQIKDKGNAYAAYYAPSVKGRFTISRDDSKNSIYLQMNSLKTEDTAVYYCHYVHYASASTVLPAFGVDAWGQGTTVTVSS VL: DIVMTQSPLSLPVTPGEPASISCQASQELVHMNRNTYLHWYQQKPGQAPRLLIYKVSNRFPGVPDRFSGSGSGTDFTLKISRVEAEDVGVYYCTQGTSVPFTFGQGTKLEIK
14 | 0.6 fold | H183/L072 VL A89S (antibody, name in Kabat numbering, V domains shown) VH: QVQLVESGGGLVQPGRSLRLSCAASGFTFSNAWMHWVRQAPGKGLEWVAQIKDKGNAYAAYYAPSVKGRFTISRDDSKNSIYLQMNSLKTEDTAVYYCHYVHYASASTVLPAFGVDAWGQGTTVTVSS VL: DIVMTQSPLSLPVTPGEPASISCQASQELVHMNRNTYLHWYQQKPGQAPRLLIYKVSNRFPGVPDRFSGSGSGTDFTLKISRVEAEDVGVYYCSQGTSVPFTFGQGTKLEIK
15 | 0.4 fold | H183/L072 VL A89V (antibody, name in Kabat numbering, V domains shown) VH: QVQLVESGGGLVQPGRSLRLSCAASGFTFSNAWMHWVRQAPGKGLEWVAQIKDKGNAYAAYYAPSVKGRFTISRDDSKNSIYLQMNSLKTEDTAVYYCHYVHYASASTVLPAFGVDAWGQGTTVTVSS VL: DIVMTQSPLSLPVTPGEPASISCQASQELVHMNRNTYLHWYQQKPGQAPRLLIYKVSNRFPGVPDRFSGSGSGTDFTLKISRVEAEDVGVYYCVQGTSVPFTFGQGTKLEIK
16 | 1.4 fold | H183/L072 VL E27aH (antibody, name in Kabat numbering, V domains shown) VH: QVQLVESGGGLVQPGRSLRLSCAASGFTFSNAWMHWVRQAPGKGLEWVAQIKDKGNAYAAYYAPSVKGRFTISRDDSKNSIYLQMNSLKTEDTAVYYCHYVHYASASTVLPAFGVDAWGQGTTVTVSS VL: DIVMTQSPLSLPVTPGEPASISCQASQHLVHMNRNTYLHWYQQKPGQAPRLLIYKVSNRFPGVPDRFSGSGSGTDFTLKISRVEAEDVGVYYCAQGTSVPFTFGQGTKLEIK
17 | 0.1 fold | H183/L072 VL A89W (antibody, name in Kabat numbering, V domains shown) VH: QVQLVESGGGLVQPGRSLRLSCAASGFTFSNAWMHWVRQAPGKGLEWVAQIKDKGNAYAAYYAPSVKGRFTISRDDSKNSIYLQMNSLKTEDTAVYYCHYVHYASASTVLPAFGVDAWGQGTTVTVSS VL: DIVMTQSPLSLPVTPGEPASISCQASQELVHMNRNTYLHWYQQKPGQAPRLLIYKVSNRFPGVPDRFSGSGSGTDFTLKISRVEAEDVGVYYCWQGTSVPFTFGQGTKLEIK
18 | 1.4 fold | H183/L072 VL E27aG (antibody, name in Kabat numbering, V domains shown) VH: QVQLVESGGGLVQPGRSLRLSCAASGFTFSNAWMHWVRQAPGKGLEWVAQIKDKGNAYAAYYAPSVKGRFTISRDDSKNSIYLQMNSLKTEDTAVYYCHYVHYASASTVLPAFGVDAWGQGTTVTVSS VL: DIVMTQSPLSLPVTPGEPASISCQASQGLVHMNRNTYLHWYQQKPGQAPRLLIYKVSNRFPGVPDRFSGSGSGTDFTLKISRVEAEDVGVYYCAQGTSVPFTFGQGTKLEIK
19 | 1.2 fold | H183/L072 VL E27aA (antibody, name in Kabat numbering, V domains shown) VH: QVQLVESGGGLVQPGRSLRLSCAASGFTFSNAWMHWVRQAPGKGLEWVAQIKDKGNAYAAYYAPSVKGRFTISRDDSKNSIYLQMNSLKTEDTAVYYCHYVHYASASTVLPAFGVDAWGQGTTVTVSS VL: DIVMTQSPLSLPVTPGEPASISCQASQALVHMNRNTYLHWYQQKPGQAPRLLIYKVSNRFPGVPDRFSGSGSGTDFTLKISRVEAEDVGVYYCAQGTSVPFTFGQGTKLEIK
20 | 1.1 fold | H183/L072 VL E27aF (antibody, name in Kabat numbering, V domains shown) VH: QVQLVESGGGLVQPGRSLRLSCAASGFTFSNAWMHWVRQAPGKGLEWVAQIKDKGNAYAAYYAPSVKGRFTISRDDSKNSIYLQMNSLKTEDTAVYYCHYVHYASASTVLPAFGVDAWGQGTTVTVSS VL: DIVMTQSPLSLPVTPGEPASISCQASQFLVHMNRNTYLHWYQQKPGQAPRLLIYKVSNRFPGVPDRFSGSGSGTDFTLKISRVEAEDVGVYYCAQGTSVPFTFGQGTKLEIK
